Source: patent publication US20110213019, “Compositions and Methods for Treating Cancer, Inhibiting Proliferation, and Inducing Cell Death” (UNIVERSITY OF LOUISVILLE RESEARCH FOUNDATION, INC., published 2011)

Tests used:
[1] = molecular target: alpha-enolase (UniProt P06733 P06733:2-434); test: EMSA; strong binding; supershifted by alpha-enolase polyclonal antibody; conditions: parallel G4
From the text: (§1) EMSAs were used to characterize the binding of α-enolase and MBP-1 to the c-myc quadruplex-forming sequence. […] The quadruplex oligonucleotide aptamer, GRO29A, competed for α-enolase and MBP-1 binding to PU27. […] A mutation in the PU27 sequence, which prevents quadruplex formation, abrogated binding of both α-enolase and MBP-1. MBP-1 also binds to a downstream site in the P2 promoter.

[2] = molecular target: MBP-1 (alternative translation product of alpha-enolase) (UniProt P06733-2 P06733-2:1-341); test: as above; conditions: parallel G4
From the text: as §1

Sequence of MBP-1 (alternative translation product of alpha-enolase) (P06733 94-434, one chain of several): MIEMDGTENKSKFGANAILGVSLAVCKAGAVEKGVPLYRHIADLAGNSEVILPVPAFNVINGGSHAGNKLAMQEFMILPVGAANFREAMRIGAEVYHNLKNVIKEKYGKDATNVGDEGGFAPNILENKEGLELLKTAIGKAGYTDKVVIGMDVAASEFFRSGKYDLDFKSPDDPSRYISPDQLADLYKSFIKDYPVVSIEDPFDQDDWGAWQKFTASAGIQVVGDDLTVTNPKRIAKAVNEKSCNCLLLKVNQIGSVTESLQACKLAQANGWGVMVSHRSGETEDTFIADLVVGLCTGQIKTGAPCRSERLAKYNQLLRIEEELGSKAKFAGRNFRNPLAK
Sequence of alpha-enolase (P06733 2-434, one chain of several): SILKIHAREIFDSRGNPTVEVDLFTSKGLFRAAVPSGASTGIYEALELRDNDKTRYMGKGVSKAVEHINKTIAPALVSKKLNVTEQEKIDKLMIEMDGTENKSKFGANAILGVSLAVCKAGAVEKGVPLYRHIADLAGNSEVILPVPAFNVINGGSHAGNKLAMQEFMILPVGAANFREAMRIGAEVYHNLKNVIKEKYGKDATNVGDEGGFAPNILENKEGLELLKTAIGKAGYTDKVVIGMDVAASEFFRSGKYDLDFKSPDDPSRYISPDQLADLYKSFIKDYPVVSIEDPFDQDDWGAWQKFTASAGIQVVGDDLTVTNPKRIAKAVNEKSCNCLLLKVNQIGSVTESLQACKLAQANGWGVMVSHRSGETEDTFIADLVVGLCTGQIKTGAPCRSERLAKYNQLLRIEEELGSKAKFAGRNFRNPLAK

Question: Does TGGGGAGGGTGGGGAGGGTGGGGAAGG (structured_DNA) [PU27 (c-Myc promoter quadruplex)] bind [1]?
Answer: binds

Question: Does TGGGGAGGGTGGGGAGGGTGGGGAAGG (structured_DNA) [PU27 (c-Myc promoter quadruplex)] bind [2]?
Answer: binds
